Patent publication US20060149521A1 (University of California, published 2006)
Numbering of substitutions follows the chain as printed.

What was measured:
[1] = molecular target: glucocorticoid receptor (GR), full length; test: peptide competition of GR binding to GRIP1
[2] = molecular target: hTRβ ligand binding domain (hTRβ LBD), in vitro translated, as used in the GST-GRIP1 binding and peptide competition assays (human) (UniProt P10828); test: GST-GRIP1 (563-767) mutant pull-down of in vitro translated TR
[3] = molecular target: hTRβ ligand binding domain (hTRβ LBD), in vitro translated, as used in the GST-GRIP1 binding and peptide competition assays (human) (UniProt P10828); test: titration of the amount of GST-GRIP1 fragment in the pull-down of TR; assigned to the fragment with only NR-box 3 functional
[4] = molecular target: hTRβ ligand binding domain (hTRβ LBD), in vitro translated, as used in the GST-GRIP1 binding and peptide competition assays (human) (UniProt P10828); test: titration of the amount of GST-GRIP1 fragment in the pull-down of TR
[5] = molecular target: hTRβ ligand binding domain (hTRβ LBD), in vitro translated, as used in the GST-GRIP1 binding and peptide competition assays (human) (UniProt P10828); test: titration of the amount of GST-GRIP1 fragment in the pull-down of TR; assigned to the fragment with only NR-box 2 functional
[6] = molecular target: hTRβ ligand binding domain (hTRβ LBD), in vitro translated, as used in the GST-GRIP1 binding and peptide competition assays (human) (UniProt P10828); test: peptide competition of hTRβ LBD binding to GST-GRIP1 (563-767) beads
[7] = molecular target: hTRβ ligand binding domain (hTRβ LBD), in vitro translated, as used in the GST-GRIP1 binding and peptide competition assays (human) (UniProt P10828); test: peptide competition (FIG. 11c)
[8] = molecular target: GRIP1 563-767 His6 GST fusion protein (mouse) (UniProt Q61026); test: GST-GRIP1 (563-767) pull-down
[9] = molecular target: GST-GRIP1 (GRIP1 amino acids 563-1121) (mouse) (UniProt Q61026); test: GST-GRIP1 pull-down of in vitro translated GR
GRIP1, full-length [10] = molecular target: T1, GRIP1, full-length (mouse, UniProt Q61026 5-1462, limits assumed, [35S]-Met labelled in the pull-down assays (in vitro translated from pSG5-GRIP1)); test: GST-hERα LBD pull-down of 35S-GRIP1, 1 µM DES
T1 construct: Full-length; Unlabelled, expressed from pSG5-GRIP1 in the HeLa transfections; also called [35S]-labeled full-length GRIP1; 35S-labeled GRIP1
Method: (§1) The wild-type and mutant GST-hERα LBDs were expressed in BL21(DE3) cells. […] Cleared extracts containing the GST-hERα LBDs were incubated in buffer alone (50 mM Tris, pH 7.4, 150 mM NaCl, 2 mM EDTA, 1 mM DTT, 0.5% NP-40 and a protease inhibitor cocktail) or with 1 μM of either DES or OHT for 1 hour at 4° C. Extract samples containing thirty pmol of GST-LBD were then incubated with 10 μl glutathioneSepharose-4B beads (Pharmacia) for 1 hour at 4° C. […] Immobilized GSThERα LBDs were incubated for 2.5 hours with 2.5 μl aliquots of crude translation reaction mixture diluted in 300 μl of Tris-buffered saline (TBS). After five washes in TBS containing 0.05% NP-40, proteins were eluted by boiling the beads for 10 minutes in sample buffer.

GRIP1, full-length [11] = molecular target: T1, GRIP1, full-length; test: GST-hERα LBD pull-down of 35S-GRIP1, no ligand or 1 µM OHT
Method: as §1

[12] = molecular target: T2, hTRβ ligand binding domain (hTRβ LBD), in vitro translated, as used in the GST-GRIP1 binding and peptide … (human, UniProt P10828 202-461, limits assumed, [35S]-methionine labelled (in vitro translated)); test: peptide competition of hTRβ LBD binding to GST-GRIP1 (563-767) beads
T2 construct: domain: LBD; also called TR LBD; TR-LBD
T2 sequence (looked up): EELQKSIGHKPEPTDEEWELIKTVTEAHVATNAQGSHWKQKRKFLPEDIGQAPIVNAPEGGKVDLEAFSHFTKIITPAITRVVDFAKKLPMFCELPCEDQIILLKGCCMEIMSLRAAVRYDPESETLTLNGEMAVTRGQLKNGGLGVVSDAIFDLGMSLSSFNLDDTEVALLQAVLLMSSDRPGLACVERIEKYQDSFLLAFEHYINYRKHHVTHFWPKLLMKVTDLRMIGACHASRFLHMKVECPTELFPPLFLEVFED
Method: Expression was quantified by phosphoimager analysis (BAS2000, Fuji). […] Binding was performed in the binding buffer described above supplemented with 20 μg/ml BSA and appropriate hormone. […] The reaction was incubated at 4° C. under rotation for 2 hours. In case of competition experiments, the appropriate concentration of peptides were added to the reaction before addition of receptors. […] Beads were washed five times with 200 μl binding buffer+BSA at 4° C. before elution of the bound proteins in 20 μl SDS loading buffer. Eluted beads and input labeled protein were subjected to SDS-PAGE. The fraction of bound nuclear receptors was determined by phosphoimager analysis.

GRIP1, full-length [13] = molecular target: T1, GRIP1, full-length; test: cell-based or functional assay
hTRβ1 L454R, full-length = molecular target: T3, hTRβ1 L454R, full-length (human, UniProt P10828 1-461, [35S]-Met labelled (in vitro translated)); test: GST-GRIP1 pull-down of [35S]-hTRβ1 with T3
T3 construct: range 1-461
T3 sequence (looked up): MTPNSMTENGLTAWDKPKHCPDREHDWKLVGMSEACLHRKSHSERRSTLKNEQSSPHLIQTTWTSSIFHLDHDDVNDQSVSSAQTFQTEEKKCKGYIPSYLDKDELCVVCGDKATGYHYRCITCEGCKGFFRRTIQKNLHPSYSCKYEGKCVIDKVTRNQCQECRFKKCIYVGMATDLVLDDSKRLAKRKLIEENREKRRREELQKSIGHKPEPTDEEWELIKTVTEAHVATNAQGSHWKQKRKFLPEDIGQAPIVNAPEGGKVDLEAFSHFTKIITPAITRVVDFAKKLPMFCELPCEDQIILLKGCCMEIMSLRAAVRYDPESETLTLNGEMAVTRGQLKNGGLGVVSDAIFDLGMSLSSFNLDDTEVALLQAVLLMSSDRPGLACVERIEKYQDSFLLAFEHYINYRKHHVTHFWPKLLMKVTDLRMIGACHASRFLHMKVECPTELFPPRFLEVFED

hTRβ1 E457K, full-length = molecular target: T4, hTRβ1 E457K, full-length (human, UniProt P10828 1-461, [35S]-Met labelled (in vitro translated)); test: GST-GRIP1 pull-down of [35S]-hTRβ1 with T3
T4 construct: range 1-461
T4 sequence (looked up): T3 sequence (looked up) with R454L, E457K

[14] = molecular target: T5, Human TRβ LBD (His6-E202-D461), purified, liganded with T3 (human, UniProt P10828 202-461); test: cocrystallisation and X-ray structure, 3.6 Å, T3-liganded
T5 construct: range 202-461; Protein of the cocrystal; also called hTRβ LBD; hTR LBD
T5 sequence: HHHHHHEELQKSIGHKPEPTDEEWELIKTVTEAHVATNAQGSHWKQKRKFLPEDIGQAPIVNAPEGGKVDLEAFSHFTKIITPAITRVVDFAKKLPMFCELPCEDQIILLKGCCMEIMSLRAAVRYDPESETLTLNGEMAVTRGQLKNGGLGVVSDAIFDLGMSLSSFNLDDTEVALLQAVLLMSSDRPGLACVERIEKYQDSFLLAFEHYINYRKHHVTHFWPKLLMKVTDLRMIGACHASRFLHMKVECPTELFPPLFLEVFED
Method: Possible rotation function solutions were calculated using normalized amplitudes in AMORE from a model of hTRβ LBD with the ligand, T₃, omitted; translation function solutions were subsequently determined using TFFC for the two rotation solutions with the highest correlation coefficients. […] After rigid body refinement of the two hTRβ LBD molecules, electron density maps were calculated.

T1 sequence (Q61026 5-1462 limits assumed): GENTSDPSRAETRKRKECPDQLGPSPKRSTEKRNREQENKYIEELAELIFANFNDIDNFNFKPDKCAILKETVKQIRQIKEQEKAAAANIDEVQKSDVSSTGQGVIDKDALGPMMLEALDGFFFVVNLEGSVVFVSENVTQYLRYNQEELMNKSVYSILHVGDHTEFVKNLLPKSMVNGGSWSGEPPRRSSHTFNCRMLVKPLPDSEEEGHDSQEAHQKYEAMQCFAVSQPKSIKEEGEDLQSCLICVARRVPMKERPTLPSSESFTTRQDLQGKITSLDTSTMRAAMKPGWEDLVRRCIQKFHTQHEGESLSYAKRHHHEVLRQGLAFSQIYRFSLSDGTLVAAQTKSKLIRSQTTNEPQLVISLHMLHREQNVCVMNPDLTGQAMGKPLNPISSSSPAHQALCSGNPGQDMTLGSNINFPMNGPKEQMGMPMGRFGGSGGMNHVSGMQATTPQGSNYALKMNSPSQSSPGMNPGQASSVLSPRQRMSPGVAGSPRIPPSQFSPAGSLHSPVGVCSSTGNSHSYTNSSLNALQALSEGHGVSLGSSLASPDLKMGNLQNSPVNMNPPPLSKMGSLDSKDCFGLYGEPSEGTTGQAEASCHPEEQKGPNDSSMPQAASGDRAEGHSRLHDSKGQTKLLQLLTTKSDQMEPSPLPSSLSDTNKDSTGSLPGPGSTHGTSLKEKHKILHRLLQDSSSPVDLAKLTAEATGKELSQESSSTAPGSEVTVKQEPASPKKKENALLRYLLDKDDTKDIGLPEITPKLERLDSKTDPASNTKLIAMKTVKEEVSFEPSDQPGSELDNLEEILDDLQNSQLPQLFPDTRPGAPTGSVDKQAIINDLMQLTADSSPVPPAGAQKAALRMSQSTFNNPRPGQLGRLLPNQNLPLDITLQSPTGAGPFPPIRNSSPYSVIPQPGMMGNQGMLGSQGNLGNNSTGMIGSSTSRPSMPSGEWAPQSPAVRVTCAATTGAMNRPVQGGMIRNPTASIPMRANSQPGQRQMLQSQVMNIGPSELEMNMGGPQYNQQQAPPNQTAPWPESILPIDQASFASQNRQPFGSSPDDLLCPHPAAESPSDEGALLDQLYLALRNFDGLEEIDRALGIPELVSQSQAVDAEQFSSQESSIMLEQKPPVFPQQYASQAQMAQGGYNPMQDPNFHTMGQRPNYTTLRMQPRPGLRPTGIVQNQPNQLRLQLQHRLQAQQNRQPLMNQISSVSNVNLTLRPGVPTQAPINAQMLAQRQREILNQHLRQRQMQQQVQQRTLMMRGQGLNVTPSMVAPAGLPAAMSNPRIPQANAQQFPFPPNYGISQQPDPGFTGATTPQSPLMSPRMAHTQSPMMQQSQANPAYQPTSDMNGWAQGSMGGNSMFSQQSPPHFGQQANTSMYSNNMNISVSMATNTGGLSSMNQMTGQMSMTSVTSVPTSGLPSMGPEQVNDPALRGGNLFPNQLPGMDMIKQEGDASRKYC
glucocorticoid receptor (GR), full length, sequence (P06536 whole entry, the tested form may be a part): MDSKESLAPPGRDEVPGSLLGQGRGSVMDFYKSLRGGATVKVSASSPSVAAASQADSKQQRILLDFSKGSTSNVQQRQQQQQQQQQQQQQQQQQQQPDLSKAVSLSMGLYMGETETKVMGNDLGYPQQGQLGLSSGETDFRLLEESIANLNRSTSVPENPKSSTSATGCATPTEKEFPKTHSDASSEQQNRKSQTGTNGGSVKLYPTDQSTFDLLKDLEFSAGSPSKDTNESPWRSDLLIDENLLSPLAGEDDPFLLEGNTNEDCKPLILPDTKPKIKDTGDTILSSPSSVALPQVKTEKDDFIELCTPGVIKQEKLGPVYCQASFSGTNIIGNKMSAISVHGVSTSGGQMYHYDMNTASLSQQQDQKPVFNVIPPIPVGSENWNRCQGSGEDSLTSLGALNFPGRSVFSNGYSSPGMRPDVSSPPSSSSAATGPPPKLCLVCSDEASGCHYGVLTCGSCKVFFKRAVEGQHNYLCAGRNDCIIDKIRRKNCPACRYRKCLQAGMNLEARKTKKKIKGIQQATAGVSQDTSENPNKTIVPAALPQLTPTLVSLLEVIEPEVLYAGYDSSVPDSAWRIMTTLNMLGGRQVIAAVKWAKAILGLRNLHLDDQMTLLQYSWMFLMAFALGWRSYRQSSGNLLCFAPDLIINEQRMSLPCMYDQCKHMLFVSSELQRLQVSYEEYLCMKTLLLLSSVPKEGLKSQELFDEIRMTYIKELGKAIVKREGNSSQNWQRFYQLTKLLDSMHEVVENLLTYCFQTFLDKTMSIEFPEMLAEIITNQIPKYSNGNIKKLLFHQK
GRIP1 563-767 His6 GST fusion protein (mouse), sequence (Q61026 other isoform, or with tags, fused parts or gaps): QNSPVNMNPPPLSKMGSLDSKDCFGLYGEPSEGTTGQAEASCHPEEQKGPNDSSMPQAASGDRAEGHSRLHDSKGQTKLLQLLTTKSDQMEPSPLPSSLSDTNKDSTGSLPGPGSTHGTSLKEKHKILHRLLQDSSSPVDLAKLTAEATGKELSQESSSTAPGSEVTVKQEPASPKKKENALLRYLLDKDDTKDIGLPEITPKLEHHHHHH

peptide containing the p53 binding site (FxxLW motif)
fold weaker binding than a peptide containing NR-box 3 [1]: 10 fold

GST-GRIP1 (563-767) His6 with non-functional NR-box 2 (hydrophobic residues of NR-box 2 replaced with alanine) (from UniProt Q61026 563-767)
loss of TR binding [2]: 50% | EC50 [3]: 4 µM

peptide containing the VP16 binding site (FxxAL motif)
fold weaker binding than a peptide containing NR-box 3 [1]: 10 fold

GST-GRIP1 (563-767) His6 with non-functional NR-box 3 (hydrophobic residues of NR-box 3 replaced with alanine) (from UniProt Q61026 563-767)
fold stronger binding of TR for NR-box 2 over NR-box 3 [4]: 4 fold | EC50 [5]: 1 µM

peptide containing GRIP1 NR-box 1
EC50 [6]: 130 µM

NR-box 2 peptide with the isoleucine of NR-box 2 replaced by phenylalanine
fold reduction of affinity against the NR-box 2 peptide [7]: 10 fold

glucocorticoid receptor (GR), full length
affinity as a fraction of that of TR [8]: 0.2 fold of TR | fold increase of binding against GRIP1 (563-767) [9]: 3 fold

B1: GST-hERα LBD (282-595) E542K (receptor)
chain: SAGDMRAANLWPSPLMIKRSKKNSLALSLTADQMVSALLDAEPPILYSEYDPTRPFSEASMMGLLTNLADRELVHMINWAKRVPGFVDLTLHDQVHLLECAWLEILMIGLVWRSMEHPGKLLFAPNLLLDRNQGKCVEGMVEIFDMLLATSSRFRMMNLQGEEFVCLKSIILLNSGVYTFLSSTLKSLEEKDHIHRVLDKITDTLIHLMAKAGLTLQQQHQRLAQLLLILSHIRHMSNKGMEHLYSMKCKNVVPLYDLLLKMLDAHRLHAPTSRGGASVEETDQSHLATAGSTSSHSLQKYYITGEAEGFPATV
notes: not shown: GST carrier (pGEX-3X) at the N end and its linker
binding result (GRIP1, full-length [10]): no binding

B2: GST-hERα LBD (282-595) V376R (receptor)
chain: B1 chain with V95R, K261E
notes: as for B1
binding result (GRIP1, full-length [11]): no binding

B3: GST-hERα LBD (282-595) I358R (receptor)
chain: B1 chain with I77R, K261E
notes: as for B1
binding result (GRIP1, full-length [11]): no binding

B4: GST-hERα LBD (282-595) L539R (receptor)
chain: B1 chain with L258R, K261E
notes: as for B1
binding result (GRIP1, full-length [11]): no binding

B5: GST-hERα LBD (282-595) K362A (receptor)
chain: B1 chain with K81A, K261E
notes: as for B1
binding result (GRIP1, full-length [10]): no binding

B6: GRIP1 NR-box 2 peptide EKHKILHRLLQDS (peptide)
peptide: EKHKILHRLLQDS
notes: also called original NR-box 2 peptide
EC50 [12]: 1.5 µM

B7: human thyroid hormone receptor β1 (hTRβ1), full-length 461 amino acids, wild type (receptor, UniProt P10828 1-461, looked up)
chain: T3 sequence (looked up) with R454L
modifications: [35S]-Met labelled (in vitro translated)
T3-dependent reporter gene activity in HeLa cells (GRIP1, full-length [13]): 5 fold

B8: GST-GRIP1 (GRIP1 amino acids 721-1121) (other, mouse, UniProt Q61026 721-1121, looked up)
chain: STAPGSEVTVKQEPASPKKKENALLRYLLDKDDTKDIGLPEITPKLERLDSKTDPASNTKLIAMKTVKEEVSFEPSDQPGSELDNLEEILDDLQNSQLPQLFPDTRPGAPTGSVDKQAIINDLMQLTADSSPVPPAGAQKAALRMSQSTFNNPRPGQLGRLLPNQNLPLDITLQSPTGAGPFPPIRNSSPYSVIPQPGMMGNQGMLGSQGNLGNNSTGMIGSSTSRPSMPSGEWAPQSPAVRVTCAATTGAMNRPVQGGMIRNPTASIPMRANSQPGQRQMLQSQVMNIGPSELEMNMGGPQYNQQQAPPNQTAPWPESILPIDQASFASQNRQPFGSSPDDLLCPHPAAESPSDEGALLDQLYLALRNFDGLEEIDRALGIPELVSQSQAVDAEQFSSQE
notes: not shown: glutathione-S-transferase (GST) from the pGEX vector
binding result (hTRβ1 L454R, full-length): no binding | binding result (hTRβ1 E457K, full-length): no binding

B9: GRIP1 NR-box 2 peptide 686-KHKILHRLLQDSS-698 (peptide)
peptide: KHKILHRLLQDSS
notes: also called GRIP1 site 2 peptide
binding result [14]: binds

B10: GRIP1 NR-box 3 peptide ENALLRYLLDKDD (peptide)
peptide: ENALLRYLLDKDD
EC50 [12]: 4 µM
